Measured values published in the RNAGym collection of RNA variant scans (doi:10.1021/acssynbio.7b00057).

B1: Pistol ribozyme (parent)
chain: GGGUCGUUGUUCCAUAAUCGCGUGGAUAUGGCACGCAAGUUUCUACCGGGCACCGUAAAUGUCCGACUGGAGCCGUUCGGGCGGCUAUAAACAGACCUCAGGCCCGAAGCGUGGCGGCACCUGCCGCCGGUGGUAAAAAAGAUCGGAAGAGCACACGUCU

Variants of: B1
Test: aptazyme ON/OFF ratio, guanine; higher = stronger switching; co-transcriptional cleavage with and without guanine

Row | Variant | aptazyme ON/OFF ratio
1 | U7A U8A U11C C12A C13A | 1.02
2 | U7A U8A U11C C12A C13U | 1.69
3 | U7A U8A U11C C12A C13G | 1.42
4 | U7A U8A U11C C13G | 1.09
5 | U7A U8A U11C C13A | 1.4
6 | U7A U8A U11C C13U | 1.23
7 | U7A U8C G9A U10A U11G C13U | 1.17
8 | U7A U8C G9A U10A U11G C13A | 1.12
9 | U7A U8C G9A U10A U11G C13G | 1.12
10 | U7A U8A U11A C12A C13G | 1.28
11 | U7A U8A U11A C12A C13A | 1.33
12 | U7A U8A U11A C12A C13U | 1.26
13 | U7A U8C G9A U10C U11C C13A | 1.04
14 | U7A U8C G9A U10C U11C C13U | 1.02
15 | U7A U8C G9A U10C U11C C13G | 1
16 | U7A U8C G9A U10C U11A C12U C13A | 1.12
17 | U7A U8C G9A U10C U11A C12U C13G | 1.15
18 | U7A U8C G9A U10C U11A C12U C13U | 1.18
19 | U7A U8C G9A U10A C12G | 1.24
20 | U7A U8C G9A U10A C12U | 1.17
21 | U7A U8C G9A U10A C12A | 1.26

Row | Variant | aptazyme ON/OFF ratio
22 | U7A U8A U10G U11G C13A | 1.07
23 | U7A U8A U10G U11G C13G | 1.12
24 | U7A U8A U10G U11G C13U | 1.5
25 | U7A U8C G9A U10C C13A | 1.09
26 | U7A U8C G9A U10C C13G | 1.07
27 | U7A U8C G9A U10C C13U | 1.12
28 | U7A U8C G9A U10C C12G C13A | 1.12
29 | U7A U8C G9A U10C C12G C13U | 1.23
30 | U7A U8C G9A U10C C12G C13G | 1.16
31 | U7A U8A U10G U11G C12U C13U | 1.27
32 | U7A U8A U10G U11G C12U C13A | 1.23
33 | U7A U8A U10G U11G C12U C13G | 1.26
34 | U7A U8C G9A U10A C13G | 1.07
35 | U7A U8C G9A U10A C13U | 1.2
36 | U7A U8C G9A U10A C13A | 1.22
37 | U7A U8C G9A U10G C12G C13U | 1.31
38 | U7A U8C G9A U10G C12G C13G | 1.2
39 | U7A U8C G9A U10G C12G C13A | 1.27
40 | U7A U8C G9A | 1.74
41 | U7A U8A U10G C12G C13U | 1.28
42 | U7A U8A U10G C12G C13A | 1.17

Row | Variant | aptazyme ON/OFF ratio
43 | U7A U8A U10G C12G C13G | 0.977
44 | U7A U8A U10G U11C C12A C13G | 1.09
45 | U7A U8A U10G U11C C12A C13A | 1.28
46 | U7A U8A U10G U11C C12A C13U | 1.34
47 | U7A U8A U10G U11G C12G C13A | 1.07
48 | U7A U8A U10G U11G C12G C13G | 1.09
49 | U7A U8A U10G U11G C12G C13U | 1.4
50 | U7A U8C G9A U10C U11A C12A C13A | 1.13
51 | U7A U8C G9A U10C U11A C12A C13U | 1.19
52 | U7A U8C G9A U10C U11A C12A C13G | 1.1
53 | U7A U8C G9A U10G U11A C12U C13U | 1.11
54 | U7A U8C G9A U10G U11A C12U C13A | 1.19
55 | U7A U8C G9A U10G U11A C12U C13G | 1.14
56 | U7A U8A U10G U11A C12G | 1.34
57 | U7A U8A U10G U11A C12U | 1.24
58 | U7A U8A U10G U11A C12A | 1.4
59 | U7A U8A U10G C12G | 1.43
60 | U7A U8A U10G C12A | 1.33
61 | U7A U8A U10G C12U | 1.35
62 | U7A U8A U11C C12G C13U | 1.46
63 | U7A U8A U11C C12G C13A | 1.25

Row | Variant | aptazyme ON/OFF ratio
64 | U7A U8A U11C C12G C13G | 1.24
65 | U7A U8C G9A U10C U11C C12U C13U | 1.04
66 | U7A U8C G9A U10C U11C C12U C13G | 1.03
67 | U7A U8C G9A U10C U11C C12U C13A | 1.05
68 | U7A U8A U10G U11G C12A | 1.3
69 | U7A U8A U10G U11G C12G | 1.33
70 | U7A U8A U10G U11G C12U | 1.46
71 | U7A U8C G9A U10A U11A C13G | 1.12
72 | U7A U8C G9A U10A U11A C13U | 1.18
73 | U7A U8C G9A U10A U11A C13A | 1.35
74 | U7A U8A U11C C12U C13U | 1.59
75 | U7A U8A U11C C12U C13G | 1.21
76 | U7A U8A U11C C12U C13A | 1.21
77 | U7A U8A U11G C12U | 1.27
78 | U7A U8A U11G C12A | 1.13
79 | U7A U8A U11G C12G | 1.27
80 | U7A U8C G9A U10A U11G C12G C13G | 1.31
81 | U7A U8C G9A U10A U11G C12G C13A | 1.11
82 | U7A U8C G9A U10A U11G C12G C13U | 1.11
83 | U7A U8A U10C U11G C12A C13U | 1.12
